Blank lines part the entries; values can stand above or below the molecule they belong to.
Columns and labels:
[1] = biological target: Capu-NT, the N-terminal half of Cappuccino (aa 1–466) (Drosophila) (UniProt Q24120)
Capu(1–321) (Drosophila) = Capu(1–321) (Drosophila) (UniProt Q24120)
[2] = biological target: Capu-tail–Alexa Fluor 488 (Drosophila); assay: fluorescence polarisation
[3] = biological target: T1, Capu-CT, the C-terminal half of Cappuccino (aa 467–1059) (Drosophila, UniProt Q24120 467-1059); assay: cell-based or functional assay
T1 sequence (looked up): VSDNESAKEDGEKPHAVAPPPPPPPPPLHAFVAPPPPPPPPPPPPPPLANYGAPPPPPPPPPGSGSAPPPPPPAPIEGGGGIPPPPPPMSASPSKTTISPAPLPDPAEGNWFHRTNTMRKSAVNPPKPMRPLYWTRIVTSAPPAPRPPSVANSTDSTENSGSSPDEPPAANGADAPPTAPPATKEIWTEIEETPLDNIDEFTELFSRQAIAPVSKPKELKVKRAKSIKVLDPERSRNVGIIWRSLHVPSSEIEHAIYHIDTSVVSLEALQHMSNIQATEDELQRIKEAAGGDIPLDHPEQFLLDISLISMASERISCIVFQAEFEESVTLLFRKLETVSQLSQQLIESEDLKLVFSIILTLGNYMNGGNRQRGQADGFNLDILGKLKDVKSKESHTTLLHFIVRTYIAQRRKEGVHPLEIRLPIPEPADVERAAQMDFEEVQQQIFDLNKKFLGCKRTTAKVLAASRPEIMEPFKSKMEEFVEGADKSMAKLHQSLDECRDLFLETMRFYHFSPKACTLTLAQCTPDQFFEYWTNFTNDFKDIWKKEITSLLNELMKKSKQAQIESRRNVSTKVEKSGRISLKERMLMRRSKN

AUC = biological target: the molecule itself; assay: AUC
SEC-MALS = biological target: the molecule itself; assay: SEC-MALS

- Kd calculated from the pyrene-actin competition assay (Vinson analysis) [1]: 167 nM
Molecule: GST–Capu-tail (dimeric) (domain or fragment)

- EC50 of relief of Capu(1–321) inhibition of Capu-CT in the pyrene-actin assay (Capu(1–321) (Drosophila)): 3000 nM
Molecule: Capu-tail (monomeric peptide cleaved from GST–Capu-tail)

- Kd [2]: 4800 nM
- inhibition activity in the pyrene-actin assay relative to Capu-NT, at 100 nM [3]: ~40%
B1: Capu(1–222) (domain or fragment, Drosophila, UniProt Q24120 1-222, looked up)
chain: MALQLGKKLAQVLGSGAGSPLTPGTMEPCAAGSGSPLANGELFNVSKAKKVELQNLSSRFTAAVTQTPPGVTSSTPNESGVTGPAGPLGATTSSPSLETQSTVIISFKSSQTPVQSQTNSAASENVEDDTAPLPLPPPPPGFGTPTTPLLSSNVLKKVASFTVEKSSAGNNSSNPPNLCPTSDETTLLATPCSSSLTVATLPPEIAVGAAAGGVAGGAGSRR

- Kd [2]: 300 nM
B2: Capu-NT, the N-terminal half of Cappuccino (aa 1–466) (domain or fragment, Drosophila, UniProt Q24120 1-466, looked up)
chain: MALQLGKKLAQVLGSGAGSPLTPGTMEPCAAGSGSPLANGELFNVSKAKKVELQNLSSRFTAAVTQTPPGVTSSTPNESGVTGPAGPLGATTSSPSLETQSTVIISFKSSQTPVQSQTNSAASENVEDDTAPLPLPPPPPGFGTPTTPLLSSNVLKKVASFTVEKSSAGNNSSNPPNLCPTSDETTLLATPCSSSLTVATLPPEIAVGAAAGGVAGGAGSRRGSSYVPEKLSFAAYEKFEGQMLIKWLISTMQSNPKSSSGDANQELFNTLALQFCNNLKYVGVLKQISNEHLDCGFSPYEMYQWTHTEQPTTSLPLTPGKLDKVAAWPFSSTPSGIRALESASLASLGAGGVAGSLATIATASTASSDNQKTLQQILKKRLLNCTTLAEVHAVVNELLSSVDEPPRRPSKRCVNLTELLNASEATVYEYNKTGAEGCVKSFTDAETQTESEDCEGTCKCGQSSTK
- Kd (AUC): 245 nM
- stoichiometry N (AUC): 2

- Kd [2]: 300 nM
B3: Capu(1–321) (domain or fragment, Drosophila, UniProt Q24120 1-321, looked up)
chain: MALQLGKKLAQVLGSGAGSPLTPGTMEPCAAGSGSPLANGELFNVSKAKKVELQNLSSRFTAAVTQTPPGVTSSTPNESGVTGPAGPLGATTSSPSLETQSTVIISFKSSQTPVQSQTNSAASENVEDDTAPLPLPPPPPGFGTPTTPLLSSNVLKKVASFTVEKSSAGNNSSNPPNLCPTSDETTLLATPCSSSLTVATLPPEIAVGAAAGGVAGGAGSRRGSSYVPEKLSFAAYEKFEGQMLIKWLISTMQSNPKSSSGDANQELFNTLALQFCNNLKYVGVLKQISNEHLDCGFSPYEMYQWTHTEQPTTSLPLTPGK
- stoichiometry N (SEC-MALS): 2
